The record followed here is patent publication US10752921B2, “Enzymes and methods for styrene synthesis” (Phytogene, Inc., priority 2012, dated 2020).

For data set [1], the target named is T1, FDC1 (Saccharomyces cerevisiae, UniProt Q03034).
T1 construct: N-terminal 6xHis leader of vector pDEST17 (own knowledge of the vector); made in house; host or cells: E. coli BL21 (DE3)
T1 sequence (Q03034 1-503): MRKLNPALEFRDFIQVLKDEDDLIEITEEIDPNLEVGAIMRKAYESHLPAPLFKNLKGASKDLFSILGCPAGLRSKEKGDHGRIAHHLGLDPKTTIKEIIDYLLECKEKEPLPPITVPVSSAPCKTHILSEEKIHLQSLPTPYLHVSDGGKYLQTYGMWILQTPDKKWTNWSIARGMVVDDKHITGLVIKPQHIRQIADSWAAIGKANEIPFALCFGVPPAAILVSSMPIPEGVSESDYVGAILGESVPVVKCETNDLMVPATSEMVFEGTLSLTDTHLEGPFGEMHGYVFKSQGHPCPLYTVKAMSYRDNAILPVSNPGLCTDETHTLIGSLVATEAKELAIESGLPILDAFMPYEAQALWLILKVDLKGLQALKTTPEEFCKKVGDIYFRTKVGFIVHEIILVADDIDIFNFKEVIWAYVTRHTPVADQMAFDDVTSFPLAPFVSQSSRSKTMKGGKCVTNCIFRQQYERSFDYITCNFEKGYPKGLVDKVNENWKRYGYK
Kind of data set: Kinetic analysis of purified wild type FDC1 (tCA to styrene, HPLC). As to conditions: for Km / Vmax: tCA as substrate (100-2000 μM), 0.5 mg purified protein, 5 min at 30° C. It counts as biochemical. As for the experimental part: The standard reaction mixture for decarboxylation consisted of 25 mM potassium phosphate buffer (pH 6.5) containing 5 mM dithiothreitol, 1.4 mM trans-cinnamic acid and enzyme (0.50 mg) to a final volume of 1.0 mL. The reaction was started by the addition of the enzyme and was incubated at 30° C. for 5 min. The reaction was stopped by adding 24 μl of glacial acetic acid (17.4N) after which 2-propanol was added in equal volume to the reaction mixture in order to solubilize the product. The amount of styrene produced was measured by HPLC using a Dionex Ultimate3000 UHPLC equipped with an auto sampler, diode array (UV/Vis) detector, and reverse phase Acclaim 120 C18 column (2.1×150 […] Dionex USA). Samples (10 μl) were injected for analyses at a total constant flow rate of 0.6 ml/minute. The samples were resolved in 0.15% acetic acid (A) with an increasing concentration gradient of acetonitrile containing 0.15% acetic acid (B) for 0 to 4 min, 5%; 4 to 5 minutes, 5 to 40%; 5 to 7 min, 40 to 45%; 7 to 8 min, 45 to 85%; 8 to 12 min, 85 to 95%; 12 to 14 minutes, 95 to 5% at a flow rate of […]. The specific activity was expressed in U (nmol styrene)·mg^−1·min^−1.
To examine the catalytic efficiency of this protein, kinetic studies of FDC1 was conducted using tCA as the substrate. […] The reactions were performed in a total of 1.0 mL standard reaction mixture with 0.5 mg purified protein, and were allowed to proceed for 5 min at 30° C. The styrene was extracted with 250 μL butanol. The experimental negative control used the same conditions except the reaction mixture contained no substrate. Activities were quantified by standard assay method. Duplicate assays were performed and averaged. The Vmax and Km were determined by nonlinear regression analysis of the velocity-concentration data fit to the Michaelis-Menten equation.

Data set [2] has as its target T1, FDC1. Kind of data set: Temperature stability of FDC1. Format: biochemical. As for the experimental part: After incubation at various temperatures, an aliquot of protein (42 mg) was added to 25 mM potassium phosphate buffer pH 6.5, 5 mM DTT, and 1.4 mM tCA to a final volume of 1 mL. The reaction mixtures were incubated for 8 minutes at 30° C. The styrene was extracted with 250 μl butanol and quantified by HPLC using C18 column. The experimental negative control used the same conditions except the reaction mixture contained no substrate. The enzyme was stable at 50° C. (FIG. 7).
After the protein was incubated for various times, an aliquot (42 mg) was added to 25 mM potassium phosphate buffer pH 6.5, 5 mM DTT, and 1.4 mM tCA to a final volume of 1 mL. The reaction mixtures were then incubated for 8 minutes at 30° C. Styrene was extracted by adding 250 μL butanol to the reaction mixtures and quantified by HPLC. The experimental negative control used the same conditions except the reaction mixture contained no substrate. The protein was stable at 50° C. for 2 hr (FIG. 8).

For data set [3], the target named is T1, FDC1. In words: pH stability of FDC1. It counts as biochemical. Conditions: incubated for 30 minutes at pH 6.0 prior to the reaction. As for the experimental part:
The protein (crude extract, 586 μL) was added to 112 μL of 500 mM buffers at pH values of 5, 6, 7, 8, 9, 10, and 11, and incubated at 30° C. for 30 minutes. After treated in various pH buffers, an aliquot of protein (42 mg) was added to a final concentration of 100 mM potassium phosphate buffer pH 6.5, 5 mM DTT, 1.4 mM cinnamic acid and brought up to a final volume of 2 mL. The reaction mixture was then incubated for 8 minutes at 30° C. The styrene was extracted by the addition of 250 μL butanol. The experimental negative control used the same conditions except the reaction mixture contained no substrate. […] This protein is stable and active in a wide range of pH and can be used for industrial production of styrene.

The test system of data set [4] is styrene production. Kind of data set: Styrene production by wild type FDC1 in anaerobic versus aerobic condition. It counts as cell-based. The procedure: Production of styrene by maintaining the culture in an aerobic environment was conducted. […] Using the STRATA-X® column, we can trap the volatile styrene and can maintain aerobic conditions.
In data set [5] the test system is styrene production. Kind of data set: Expression of FDC-PAL2 fusion protein in E. coli, styrene in medium. It counts as cell-based. As to conditions: expressed in E. coli. From the text: Artificial channels were included in the styrene production. To construct the fusion protein of PAL2 and FDC using Gateway technology, four primers were designed for PCR amplification. […] The FDC gene (˜1.5 kb) and the PAL2 gene (2.2 kb) were amplified using the above primers and cloned into the Gateway vector pDEST17. The constructs of the fusion protein of PAL2 and FDC were transformed to BL21(DE3). Fusion proteins of FDC mutant and PAL also can be obtained by the above process.
This fusion protein produced styrene at an amount that was about 6-fold higher than that of FDC expressing in E. coli (95 mg/Lin medium). This amount of styrene was also much higher than that of non-fused proteins of PAL2 and FDC (expressed in yeast, with 69 mg/L styrene detected).

B1: FDC1: Saccharomyces cerevisiae cinnamic acid decarboxylase, also termed ferulic acid decarboxylase; 503 amino acids, SEQ ID NO:8 (protein, listed as Saccharomyces cerevisiae)
chain: MRKLNPALEFRDFIQVLKDEDDLIEITEEIDPNLEVGAIMRKAYESHLPAPLFKNLKGASKDLFSILGCPAGLRSKEKGDHGRIAHHLGLDPKTTIKEIIDYLLECKEKEPLPPITVPVSSAPCKTHILSEEKIHLQSLPTPYLHVSDGGKYLQTYGMWILQTPDKKWTNWSIARGMVVDDKHITGLVIKPQHIRQIADSWAAIGKANEIPFALCFGVPPAAILVSSMPIPEGVSESDYVGAILGESVPVVKCETNDLMVPATSEMVFEGTLSLTDTHLEGPFGEMHGYVFKSQGHPCPLYTVKAMSYRDNAILPVSNPGLCTDETHTLIGSLVATEAKELAIESGLPILDAFMPYEAQALWLILKVDLKGLQALKTTPEEFCKKVGDIYFRTKVGFIVHEIILVADDIDIFNFKEVIWAYVTRHTPVADQMAFDDVTSFPLAPFVSQSSRSKTMKGGKCVTNCIFRQQYERSFDYITCNFEKGYPKGLVDKVNENWKRYGYK
The Km is the concentration of substrate that gives half-maximal velocity. Broadly, the Vmax is the top rate of the reaction or transport when substrate is in excess. B1 registered a catalytic efficiency in data set [1] (tCA as substrate) of 8.4 M^−1 S^−1. Further, in data set [1] (listed as wild type FDC), the Km is ~688 µM and the maximal velocity (Vmax) entry was “about 6.17 nmol·mg^−1·min^−1”. Moreover, in data set [1] (listed as wild type FDC1), the Michaelis constant (Km) came out at 688 µM and the Vmax was determined as 6.17 nmol/mg/min. In data set [2] (after incubation at 50° C. for about 2 hours), the activity retained turned out to be 100%. For the same molecule, the “stability at 50° C. over time” value in data set [2] (crude extract incubated at 50° C. for 2 hr) is on record as “stable”. Besides, the temperature stability entry in data set [2] (incubated 30 minutes at 50° C. prior to reaction) is given as “stable”. The “relative activity after incubation at 50° C.” value in data set [2] (incubated at 50° C. for 30 minutes prior to the reaction) is on record as 100%. In data set [3], the “relative activity after incubation at pH 6.0” value is on record as 100%. The “amount of styrene in anaerobic condition compared to aerobic condition” value in data set [4] is “half the amount of styrene”. The same molecule displayed a styrene in medium in data set [5] of 95 mg/L.
